Experimental findings from patent US8614103B2, “Compositions and methods for treating sphingosine-1-phosphate (S1P) related ocular diseases and conditions” (Lpath, Inc., priority 2006, dated 2013) are described below.

Data set [1] is described as follows: Stability after thermochallenge (TM). In kind it is physicochemical. The note with it: thermochallenge of supernatants. The method, then:
The humanized variants were tested for stability after challenge at high temperature. The approximate midpoints of the thermal unfolding transitions (TM) were determined for every humanized variant by subjecting the supernatants to temperatures ranging from 60 to 74° C. These temperatures were chosen based on the denaturation profile observed for the murine antibody molecule after thermochallenging between a broad range of temperatures between 50 and 80° C. The binding properties of each variant were determined before and after thermochallenge.

A further data set has as its system CNV lesions. Nature of the data set: CNV animal model, murine vs humanized variants (Example 17). In kind it is in vivo, mouse. The note with it: 0.5 ug intravitreal Day 0 and Day 6; 14 days post laser; vs saline. The method, then: The humanized antibody variants and the murine antibody were compared for their ability to inhibit neo-vascularization in the CNV animal model of AMD as shown in FIG. 13. […] Mice were sacrificed 14 days post laser surgery. Control mice were treated with aqueous buffer (PBS) or an isotype-matched non-specific antibody. Three of the humanized variants inhibited angiogenesis essentially equivalently to the murine antibody as assessed by measurement of CNV area. CNV lesion volumes are represented as means±SEM. […]
The morphometric and volumetric CNV lesions were measured as follows. […]
Captured digital images were evaluated morphometrically using ImageJ software (Research Services Branch, National Institutes of Health, Bethesda, Md.). Images were split into separate RGB channels for analysis of the red and green channels as follows: 1) a calibration for the specific objective and microscope was applied to set the pixel-to-length ratio; 2) a threshold was applied using the Otsu algorithm; 3) images will be made binary; 4) a region-of-interest (ROI) was outlined to include the entire lesion area; 5) a particle analysis was performed to quantify the pixel area above the threshold level within the ROI. […]

B1: LT1002: murine monoclonal antibody to S1P, IgG1 kappa, hybridoma clone 306D326.26 (antibody, listed as Mus sp., V domains shown)
VH: QAHLQQSDAELVKPGASVKISCKVSGFIFIDHTIHWMKQRPEQGLEWIGCISPRHDITKYNEMFRGKATLTADKSSTTAYIQVNSLTFEDSAVYFCARGGFYGSTIWFDFWGQGTTLTVS
VL: ETTVTQSPASLSMAIGEKVTIRCITTTDIDDDMNWFQQKPGEPPNLLISEGNILRPGVPSRFSSSGYGTDFLFTIENMLSEDVADYYCLQSDNLPFTFGSGTKLEIK
On to B1, for which the “TM (approximate midpoint of the thermal unfolding transition)” value in data set [1] was found to be 65 °C. The “Percent inhibition of lesion size” value in the data set with CNV lesions was “approximately 80%”.
